Results: patent publication US5656591A, “Antimicrobial agents and method for treating products therewith” (Morinaga Milk Industry Co., Ltd., priority 1992, dated 1997)

Assays:
[1] = system: microorganisms belonging to the genera of Staphylococcus and Enterococcus; conditions: Journal of Dairy Science, Vol. 67, page 606, 1984; cited from earlier work
[2] = system: Staphylococcus aureus (JCM-2151); test: Viability assay (survival rate) in cow's milk medium; format: cell-based
Protocol: The colonies grown on the culture medium were scraped by a platinum loop and cultivated in 1% peptone (by Difco Company) culture medium for several hours at 37° C., and the resultant microbial culture at logarithmic phase was used as the preculture in a serial concentration of 3×10^8 /ml.
A quantity of the resultant solutions of the samples were selectively mixed with a quantity of the basal medium, thereby test media for the respective tests were prepared in the combinations and eventual concentrations as specified in the respective tests.
Utilizing the samples (5), (7), (8), (9), (10), (14), (15), (17), (18) and (19), test media were prepared in the same manner as in the preparation of the test media containing sample (3) and the like, except that the aqueous solution (in the cases of samples (5) and (7), aqueous suspensions) were not dealt with sterilization filters.
To 2 ml aliquots of test media prepared in (3-1) (supra), […] aliquots of the preculture of Staphylococcus aureus prepared in (1) (2. Method, supra) were added, then incubated at 37° C. for 1 hour, 200 μl aliquots of the resultant cultures were taken out and diluted with 1% peptone solution in a series of 10^n respectively, 110 μl aliquots of the resultant dilution series were spread onto plates of standard agar culture medium, and after incubation at 37° C. for 24 hours the number of colonies grown on the plates were counted (Test. Colony Count).
Control coloney counts 1 were determined in the same manner as in the determination of the test coloney counts, except that […] aliquots of the preculture of Staphylococcus aureus prepared in (1) (2. Method, supra) were added to 2 ml aliquots of the respective control media 1 prepared in (3-2) (supra). Furthermore, control coloney counts 2 were determined in the same manner as in the determination of the test coloney counts, except that […] aliquots of the preculture of Staphylococcus aureus prepared in (1) (supra) were added to 2 ml aliquots of the respective control media 1 prepared in (3-2) (supra).
Survival rate 1=(Test Colony Count/Control Colony Count 1)×100
Survival rate 2=(Control Colony Count 2/Control Colony Count 1)×100
(Note: In the tables shown hereinafter, vulues of survival rate 2 are indicated in the row where the concentration of antimicrobial peptide or lactoferrin hydrolysate is 0.)

B1: lactoferrin: Bovine lactoferrin on the market (by Sigma Company) (protein)
chain: APRKNVRWCTISQPEWFKCRRWQWRMKKLGAPSITCVRRAFALECIRAIAEKKADAVTLDGGMVFEAGRDPYKLRPVAAEIYGTKESPQTHYYAVAVVKKGSNFQLDQLQGRKSCHTGLGRSAGWIIPMGILRPYLSWTESLEPLQGAVAKFFSASCVPCIDRQAYPNLCQLCKGEGENQCACSSREPYFGYSGAFKCLQDGAGDVAFVKETTVFENLPEKADRDQYELLCLNNSRAPVDAFKECHLAQVPSHAVVARSVDGKEDLIWKLLSKAQEKFGKNKSRSFQLFGSPPGQRDLLFKDSALGFLRIPSKVDSALYLGSRYLTTLKNLRETAEEVKARYTRVVWCAVGPEEQKKCQQWSQQSGQNVTCATASTTDDCIVLVLKGEADALNLDGGYIYTAGKCGLVPVLAENRKSSKHSSLDCVLRPTEGYLAVAVVKKANEGLTWNSLKDKKSCHTAVDRTAGWNIPMGLIVNQTGSCAFDEFFSQSCAPGADPKSRLCALCAGDDQGLDKCVPNSKEKYYGYTGAFRCLAEDVGDVAFVKNDTVWENTNGESTADWAKNLNREDFRLLCLDGTRKPVTEAQSCHLAVAPNHAVVSRSDRAAHVKQVLLHQQALFGKNGKNCPDKFCLFKSETKNLLFNDNTECLAKLGGRPTYEEYLGTEYVTAIANLKKCSTSPLLEACAFLTR
concentration in which lactoferrin exhibits antimicrobial activity [1]: 0.5 to 80 mg/mL
survival rate ([2]; Test 1: peptide 0, lactoferrin 0.1 mg/ml): 150
survival rate ([2]; Test 1: peptide 0, lactoferrin 1 mg/ml): 150
survival rate ([2]; Test 1: peptide 0, lactoferrin 10 mg/ml): 104
survival rate ([2]; Test 20: peptide 0, 1-monolauroyl-rac-glycerol 0, bovine lactoferrin 1 mg/ml): 105%
antimicrobial activity of the compound added without antimicrobial peptide or lactoferrin hydrolysate (in words) ([2]; compound alone): no antimicrobial activity was observed
effect of the coexisting compound on the antimicrobial activity of the antimicrobial peptide (in words) ([2]; with antimicrobial peptide Seq. ID No. 26): augments the antimicrobial activity of the peptide
effect of the coexisting compound on the antimicrobial activity of the antimicrobial peptide (in words) ([2]; with antimicrobial peptide Seq. ID No. 27): further augments the antimicrobial activity of the antimicrobial peptides
